The source of these data is patent US20210130452A1 (Merck KGaA, published 2021).

Where a chain is given by its changes, count along the chain named. Names and notes keep the numbering of the source.

First the molecules themselves.
T1: human IL-17F (human, UniProt Q96PD4 31-163, biotinylated with Sulfo-NHS-LC-Biotin in the AlphaScreen assays only)
T1 construct: also called hIL-17F; recombinant human IL-17F
T1 sequence: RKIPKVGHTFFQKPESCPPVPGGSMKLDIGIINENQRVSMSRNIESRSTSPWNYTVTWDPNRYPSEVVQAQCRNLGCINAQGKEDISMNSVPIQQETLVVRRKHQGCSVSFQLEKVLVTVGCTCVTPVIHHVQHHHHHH

B1: 13E02 (VHH)
VHH: EVQLVESGGGLVQAGGSLRLSCAASGRTYDAMGWLRQAPGKEREFVAAISGSGDDTYYADSVKGRFTISKDNAGITMYLQMNSLKPEDTAVYYCATRRGLYYVWDSNDYENWGQGTQVTVSS
notes: Class 4 Nanobody (cross-reactive: anti-IL-17A, IL-17F and IL-17A/F); also called IL17MS13E02; not shown: c-myc, His6 tag
B2: 17C01 (VHH)
VHH: EVQLVESGGRLVQAGGSLRLPCAASGRTFTSYPMGWFRQAPGKEREFVAAISMSGDDAAYADFVRGRFTISRDDARNTVYLHMTSLKPEDTAVYYCAARTSYDGTYDYIDDYSYWGQGTQVTVSS
notes: Class 4 Nanobody (cross-reactive: anti-IL-17A, IL-17F and IL-17A/F); not shown: c-myc, His6 tag
B3: 16A04 (VHH)
VHH: EVQLVESGGGLVQAGGSLRLSCAASGRTFSSYVVGWFRQAPGKEREFIGAISGSGDSIYYAVSEKDRFTISRDNGKNTLYLQMSSLKAEDTAVYYCTADQEFGYLRFGRSEYWGQGTQVTVSS
notes: Class 3 Nanobody (anti-IL-17F); also called IL17MS16A04; not shown: c-myc, His6 tag
B4: 18B05 (VHH)
VHH: EVQLVKSGGGLVQPGGSLRLSCAASGGTFSLFAMGWFREAPGKEREFVAAIRWSDGSSYYADSVKGRFTISRDNAKNAVHLQSNSLKSEDTAVYYCYADVQGGLHRYWGQGTQVTVSS
notes: as for B2
B5: 13B03 (VHH)
VHH: EVQLVESGGGSVQAGDSLRLSCAASGRANSINWFGWFRQTPGKEREFVAGIRWSDAYTEYANSVKGRFTISRDNAKNTVDLQMDSLKPEDTAVYYCVLDLSTVRYWGQGTQVTVSS
notes: Class 4 Nanobody (cross-reactive: anti-IL-17A, IL-17F and IL-17A/F); also called IL17MS13B03; not shown: c-myc, His6 tag
B6: 02E03 (VHH)
VHH: EVQLVESGGGLVQPGGSLRLSCAASGFTFSSYAMSWARQAPGEGLEWVSDINSGGTRTTYADSVKGRFTISRDNAKNTLYLQMNSLKPEDTAVYVCAKLSVFRSQLGGKYYGGDYENRGQGTQVTVSS
notes: Class 1 Nanobody (anti-IL-17A); not shown: c-myc, His6 tag
B7: 03E05 (VHH)
VHH: EVQLVESGGGLVQAGGSLRLSCAASGVTFDDYSIGWFRQAPGKEREGVSCISSSDGIPYYSDFVKGRFTTSIDNAKNTVYLQMNSLKPEDTAVYYCAAGFGRLCAEFDSWGQGTQVTVSS
notes: as for B6
B8: 01D02 (VHH)
VHH: EVQLVESGGGLVQAGGSLRLSCAASGLSFSSYALGWFRQAPGKERDFVAAINWSGDNTHYADSVKGRFTISRDNAKNTVSLQMNSLKPEDTAVYYCAAQLGYESGYSLTYDYDYWGQGTQVTVSS
notes: as for B6
B9: IL17MS3015 (VHH, name in Kabat numbering)
VHH: EVQLVESGGGLVQPGGSLRLSCTASGTIVNIHVMGWYRQAPGKQRELVALIFSGGSADYADSVKGRFTISRDNSKNTVYLQMNSLRPEDTAVYYCAAEIGYYSGGTYYSSEAHWGQGTLVTVSS
notes: basic + Q18L, A84P; Kabat positions
B10: IL17MS3016 (VHH, name in Kabat numbering)
VHH: B9 VHH with L18Q, T23A
notes: basic + T23A, A84P; Kabat positions

The target in the first experiment is T2, human IL-17A/F heterodimer (human, UniProt Q16552 24-155; Q96PD4 31-163, limits assumed, biotinylated with Sulfo-NHS-LC-Biotin in the AlphaScreen assays only). Description: cell-based or functional assay.
Target sequence in this assay (Q16552 24-155 limits assumed, chain 1 of 2, one chain of several): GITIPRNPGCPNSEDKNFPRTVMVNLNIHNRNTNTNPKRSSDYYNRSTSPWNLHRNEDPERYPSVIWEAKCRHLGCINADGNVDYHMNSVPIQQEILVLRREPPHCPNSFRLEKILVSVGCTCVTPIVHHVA
Regarding B1, the “IL-17A/F-induced IL-6 production in HT-1080 cells, Emax” value was 108% and the “IL-17A/F-induced IL-6 production in HT-1080 cells, IC50” value is 21.7 nM.
On the same counts, the results for B2 are 107% and 41.8 nM.
The corresponding values for B3 are 95% and 48.2 nM.
On the same counts, the results for B4 are 118% and 37.1 nM.
As to B5, the “IL-17A/F-induced IL-6 production in HT-1080 cells, Emax” value is 112% and the “IL-17A/F-induced IL-6 production in HT-1080 cells, IC50” value worked out at 26.8 nM.

In a further experiment the target is T1, human IL-17F. Description: AlphaScreen competition, hIL-17F - IL-17RC-Fc. (In general: Alpha assays give light when donor and acceptor beads are brought close together.)
Description: (§1) To this mixture, the IL-17RA or IL-17RC Fc-fusions, Acceptor beads and the streptavidin Donor beads were added and further incubated for 1 hour at RT.
Take B1: the IC50 – broadly, the midpoint of a concentration-inhibition curve – was 0.214 nM.
On the same count and under the same terms, for B2 the value was 0.168 nM; for B3, 0.052 nM.
Turning to B4, the IC50 came out at 13.3 nM.
The same measure, in the same setting: for B5 the value was 0.848 nM.

In the next experiment the target is T3, human IL-17A (human, UniProt Q16552 24-155, biotinylated with Sulfo-NHS-LC-Biotin in the AlphaScreen assays only).
T3 construct: also called hIL-17A; recombinant human IL-17A
T3 sequence (Q16552 other isoform, or with tags, fused parts or gaps): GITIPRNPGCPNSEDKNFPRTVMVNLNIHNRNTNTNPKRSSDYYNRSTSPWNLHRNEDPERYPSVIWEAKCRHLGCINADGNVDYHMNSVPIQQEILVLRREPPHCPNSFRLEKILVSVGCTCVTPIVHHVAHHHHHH
Description: AlphaScreen competition, hIL-17A - IL-17RA-Fc.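 Further: receptor Fc-fusion plus Acceptor and streptavidin Donor beads incubated with the mixture for 1 h at room temperature before reading.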
Description: as §1
Consider B1, for which the half-inhibitory concentration (IC50) is 0.067 nM.
On the same count and under the same terms, with B6 the figure was 0.256 nM; with B2, 0.066 nM.
Still for that read-out and setting: with B3 the figure was above 77.9 nM.
Still for that read-out and setting: for B7 the value was 0.058 nM; for B4, 0.173 nM.
For B8, the IC50 stood at 0.13 nM.
Still for that read-out and setting: for B5 the value was 0.056 nM.

A further experiment deals with T4, human IL-17A (human, UniProt Q16552 24-155).
T4 construct: secreted form (GenBank U32659) expressed in Hek293 with C-terminal 6-His; also called hIL-17A; IL-17A-6HIS
T4 sequence (Q16552 other isoform, or with tags, fused parts or gaps): as above
Description: AlphaScreen IL-17A-IL-17RA, average.
The molecule B9 returned an IC50 of 0.171 nM.
On the same count and under the same terms, with B10 the figure was 0.177 nM.

The target of the next experiment is T1, human IL-17F. Description: SPR Biacore, hIL-17F on chip; periplasmic extract (*); NB = no binding.
Take B6: the binding result is given as “no binding”.
With B7, the binding result is “no binding”.
The same measure, in the same setting: with B8 the entry was “no binding”.

A further experiment concerns the target T2, human IL-17A/F heterodimer. Description: AlphaScreen competition, hIL-17A/F - IL-17RA-Fc.
Description: as §1
Regarding B1, the IC50 is 0.071 nM.
For the molecule B2, the IC50 stood at 0.264 nM.
Still for that read-out and setting: for B3 the value was 90.4 nM; for B7, above 250 nM.
The molecule B4 showed an IC50 of 0.231 nM.
In turn, B8 yielded an IC50 of 71.7 nM.
Regarding B5, the IC50 was 0.079 nM.

In the next experiment the target is T3, human IL-17A. Description: SPR Biacore, hIL-17A on chip; periplasmic extract (*). Background: SPR reads the build-up and loss of mass on a sensor chip optically.
For B6, the koff (as a rule, the first-order rate constant of dissociation) came to 0.0009 s⁻¹.
With B7, the koff stood at 0.0001 s⁻¹.
Still for that read-out and setting: with B8 the figure was 0.00044 s⁻¹.

In another experiment the target is T3, human IL-17A. Description: cell-based or functional assay.
As for B1, the “IL-17A-induced IL-6 production in HT-1080 cells, Emax” value (“IL-17A-induced IL-6 production … Emax” for short) came out at 102% and the “IL-17A-induced IL-6 production in HT-1080 cells, IC50” value (from here on “IL-17A-induced IL-6 production … IC50”) stood at 3.5 nM.
On the same counts, the results for B6 are 99.3% and 16.4 nM.
On the same counts, the results for B2 are 105% and 15.1 nM.
On the same counts, the results for B7 are 100% and 4 nM.
As for B4, the “IL-17A-induced IL-6 production … Emax” value is 104% and the “IL-17A-induced IL-6 production … IC50” value came out at 20.6 nM.
B8: the “IL-17A-induced IL-6 production … Emax” value is 101% and the “IL-17A-induced IL-6 production … IC50” value is 4.8 nM.
The corresponding values for B5 are 101% and 2.9 nM.

For a further experiment, the target named is T3, human IL-17A. Description: SPR Biacore, hIL-17A on chip; purified protein.
On to B1, for which the koff is 0.00013 s⁻¹.
With B2, the koff amounted to 0.00029 s⁻¹.
The same measure, in the same setting: for B4 the value was 0.00022 s⁻¹.
The same measure, in the same setting: for B5 the value was 6.3e-05 s⁻¹.

A further experiment addresses T2, human IL-17A/F heterodimer. Description: SPR Biacore, hIL-17A/F on chip; purified protein.
For B1, the koff turned out to be 7.1e-05 s⁻¹.
The same measure, in the same setting: with B2 the figure was 0.00075 s⁻¹.
On the same count and under the same terms, with B3 the figure was 0.003 s⁻¹.
Same read-out and setting: with B4 the figure was 0.00012 s⁻¹.
B5 yielded a koff of 3.6e-05 s⁻¹.

Another experiment deals with T1, human IL-17F. Description: SPR Biacore, hIL-17F on chip; purified protein.
Description: Off-rates of the periplasmic extracts containing anti-IL-17 Nanobodies were measured by Surface Plasmon Resonance (SPR) using a Biacore T100 instrument. […] Periplasmic extracts containing IL-17 neutralizing Nanobodies were injected for 2 minutes at a flow rate of 45 μl/min to allow binding to chip-bound antigen. Next, binding buffer without periplasmic extracts was sent over the chip at the same flow rate to allow spontaneous dissociation of bound Nanobody. From the sensorgrams obtained for the different periplasmic extracts koff-values (k₄) were calculated.
The molecule B1 had a koff of 0.0036 s⁻¹.
On the same count and under the same terms, with B2 the figure was 0.056 s⁻¹.
With B3, the off-rate (koff) came out at 0.00053 s⁻¹.
The same measure, in the same setting: for B4 the value was 0.14 s⁻¹.
Same read-out and setting: for B5 the value was 0.0058 s⁻¹.

The target in a further experiment is T1, human IL-17F. Description: AlphaScreen competition, hIL-17F - IL-17RA-Fc.
Description: as §1
Regarding B1, the IC50 is 0.395 nM.
The same measure, in the same setting: for B2 the value was 0.296 nM; for B3, 1.09 nM.
On the same count and under the same terms, for B4 the value was 36.6 nM; for B5, 2.11 nM.

The next experiment addresses T2, human IL-17A/F heterodimer. Description: AlphaScreen competition, hIL-17A/F - IL-17RC-Fc.
Description: as §1
Consider B1, for which the IC50 is 0.117 nM.
With B6, the IC50 is above 250 nM.
Same read-out and setting: for B2 the value was 0.801 nM.
Consider B3, for which the half-maximal inhibitory concentration (IC50) is 0.389 nM.
Same read-out and setting: for B4 the value was 0.087 nM; for B8, 94.7 nM.
In the case of B5, the IC50 amounted to 0.031 nM.

Another experiment deals with T3, human IL-17A. Description: AlphaScreen competition, hIL-17A - IL-17RC-Fc.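 Further: Read-out after 1 h at room temperature with the receptor Fc-fusion, Acceptor beads and streptavidin-coated Donor beads present.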
Description: as §1
Molecule B1 returned an IC50 of 0.187 nM.
The same measure, in the same setting: for B6 the value was 0.778 nM; for B2, 0.169 nM; for B3, above 131 nM.
Turning to B7, the IC50 came out at 0.38 nM.
Same read-out and setting: for B4 the value was 0.408 nM; for B8, 0.363 nM.
Still for that read-out and setting: for B5 the value was 0.202 nM.

The target of a further experiment is T1, human IL-17F. Description: cell-based or functional assay.
Turning to B1, the “IL-17F-induced IL-6 production in HT-1080 cells, Emax” value stood at 86.5% and the “IL-17F-induced IL-6 production in HT-1080 cells, IC50” value was determined as 104 nM.
The corresponding values for B3 are 100% and 112 nM.
On the same counts, the results for B5 are 85.5% and 149 nM.
